Where two headings read alike, the source gives them in different places.
B1: CAP2 (endogenous, rat hippocampus and primary hippocampal neurons) (natural protein, UniProt P52481 1-477, looked up)
chain: MADMLGLMQRLEFAVSRLERLSSGLHEPPGGCGEVNSLSRGIVAPSVEAFDKLINSMVAEFLKNSRVLAGDVETHAEMVHGAFQAQRAFLLMVSQHQQPQENEVAVLLKPISEKIQEIQTFRERNRGSDMFNHLSAVSESIAALGWIAVSPKPGPYVKEMNDAATFYTNRVLRDYKHSDLRHVDWVRSYLKIWSELQAYIKEHHTTGLTWSKTGPVASTASAFSILSSGPGLPPPPPPPPPPGPPPPFENEGGKEEPSPSRSALFAQLNQGEAITKGLRHVTDDKKIYKNPSLRAQGQIRSPTKTRTPSPTSSKSNSPQKHAPVLELEGKKWRVEYQEDRNDLVISETELKQVAYIFKCDKSTLQIKGKVNSITVDNCKKFGLVFDHVVGIVEVINSKDIQIQVMGRVPTISINKTEGCHLYLSKDALDCEIVSAKSSEMNVLVPQGDDYREFPIPEQFKTIWDGSKLITEPAEIMA
B2: CAP2 (endogenous, mouse hippocampus) (natural protein, mouse (endogenous in hippocampus), UniProt Q9CYT6 1-476, looked up)
chain: MTDMAGLMERLERAVIRLEQLSAGLDGPPRGCGEVNGVNGGVAPSVEAFDKLINSMVAEFLKNSRVLAGDVETHAEMVHGAFQAQRAFLLMVSQYQQPQENEVAVLLKPISEKIQEIQTFRERNRGSNMFNHLSAVSESIAALGWIAVSPKPGPYVKEMNDAATFYTNRVLKDYKHSDLRHVDWVRSYLNIWSELQAYIREHHTTGLTWSKTGPVASTASAFSILSSGPGLPPPPPPPPPPGPPPPFENEDKKEEPSPSRSALFAQLNQGEAITKGLRHVTDDKKTYKNPSLRAQGQIRSPTKTHTPSPTSPKSNSPQKHTPVLELEGKKWRVEYQEDRNDLVISETELKQVAYIFKCDKSTLQIKGKVNSITVDNCKKFGLVFDHVVGIVEVINSKDIQIQVMGRVPTISINKTEGCHLYLSEDALDCEIVSAKSSEMNVLVPQDDDYREFPIPEQFKTIWDGSKLVTEPAEIMA
B3: Streptag-CAP2 (natural protein, UniProt Q9CYT6 1-476, looked up)
chain: B2 chain
B4: Myc-CAP2 (natural protein, UniProt Q9CYT6 1-476, looked up)
chain: B2 chain
B5: CAP2 monomer (endogenous, human hippocampus) (natural protein, human (endogenous in hippocampus), UniProt P40123 1-477, looked up)
chain: MANMQGLVERLERAVSRLESLSAESHRPPGNCGEVNGVIAGVAPSVEAFDKLMDSMVAEFLKNSRILAGDVETHAEMVHSAFQAQRAFLLMASQYQQPHENDVAALLKPISEKIQEIQTFRERNRGSNMFNHLSAVSESIPALGWIAVSPKPGPYVKEMNDAATFYTNRVLKDYKHSDLRHVDWVKSYLNIWSELQAYIKEHHTTGLTWSKTGPVASTVSAFSVLSSGPGLPPPPPPLPPPGPPPLFENEGKKEESSPSRSALFAQLNQGEAITKGLRHVTDDQKTYKNPSLRAQGGQTQSPTKSHTPSPTSPKSYPSQKHAPVLELEGKKWRVEYQEDRNDLVISETELKQVAYIFKCEKSTIQIKGKVNSIIIDNCKKLGLVFDNVVGIVEVINSQDIQIQVMGRVPTISINKTEGCHIYLSEDALDCEIVSAKSSEMNILIPQDGDYREFPIPEQFKTAWDGSKLITEPAEIMA

Assays:
Assay in all cases: non-reducing SDS-PAGE with Western blot
[1] = target: the molecule itself
[2] = target: the molecule itself; remark: listed apart in the source
[3] = target: the molecule itself; remark: listed apart in the source

Protein	stoichiometry N [1]	further results
B1	2	
B2	2	
B3		stoichiometry N [2]: 2
B4		stoichiometry N [3]: 2
B5	2	

Source: publication doi:10.1101/789552 (bioRxiv, 2019)
